From publication PMC7199855, “GRAF2, WDR44, and MICAL1 mediate Rab8/10/11–dependent export of E-cadherin, MMP14, and CFTR ΔF508” (The Journal of Cell Biology, 2020)

B1: myc-MICAL1 [human] / GRAF2-GFP [human] (parent complex)
chain 1: MASPTSTNPAHAHFESFLQAQLCQDVLSSFQELCGALGLEPGGGLPQYHKIKDQLNYWSAKSLWTKLDKRAGQPVYQQGRACTSTKCLVVGAGPCGLRVAVELALLGARVVLVEKRTKFSRHNVLHLWPFTIHDLRALGAKKFYGRFCTGTLDHISIRQLQLLLLKVALLLGVEIHWGVTFTGLQPPPRKGSGWRAQLQPNPPAQLANYEFDVLISAAGGKFVPEGFKVREMRGKLAIGITANFVNGRTVEETQVPEISGVARIYNQSFFQSLLKATGIDLENIVYYKDDTHYFVMTAKKQCLLRLGVLRQDWPDTNRLLGSANVVPEALQRFTRAAADFATHGKLGKLEFAQDAHGQPDVSAFDFTSMMRAESSARVQEKHGARLLLGLVGDCLVEPFWPLGTGVARGFLAAFDAAWMVKRWAEGAESLEVLAERESLYQLLSQTSPENMHRNVAQYGLDPATRYPNLNLRAVTPNQVRDLYDVLAKEPVQRNNDKTDTGMPATGSAGTQEELLRWCQEQTAGYPGVHVSDLSSSWADGLALCALVYRLQPGLLEPSELQGLGALEATAWALKVAENELGITPVVSAQAVVAGSDPLGLIAYLSHFHSAFKSMAHSPGPVSQASPGTSSAVLFLSKLQRTLQRSRAKENAEDAGGKKLRLEMEAETPSTEVPPDPEPGVPLTPPSQHQEAGAGDLCALCGEHLYVLERLCVNGHFFHRSCFRCHTCEATLWPGGYEQHPGDGHFYCLQHLPQTDHKAEGSDRGPESPELPTPSENSMPPGLSTPTASQEGAGPVPDPSQPTRRQIRLSSPERQRLSSLNLTPDPEMEPPPKPPRSCSALARHALESSFVGWGLPVQSPQALVAMEKEEKESPFSSEEEEEDVPLDSDVEQALQTFAKTSGTMNNYPTWRRTLLRRAKEEEMKRFCKAQTIQRRLNEIEAALRELEAEGVKLELALRRQSSSPEQQKKLWVGQLLQLVDKKNSLVAEEAELMITVQELNLEEKQWQLDQELRGYMNREENLKTAADRQAEDQVLRKLVDLVNQRDALIRFQEERRLSELALGTGAQG
chain 2: MGLQPLEFSDCYLDSPWFRERIRAHEAELERTNKFIKELIKDGKNLIAATKSLSVAQRKFAHSLRDFKFEFIGDAVTDDERCIDASLREFSNFLKNLEEQREIMALSVTETLIKPLEKFRKEQLGAVKEEKKKFDKETEKNYSLIDKHLNLSAKKKDSHLQEADIQVEQNRQHFYELSLEYVCKLQEIQERKKFEFVEPMLSFFQGMFTFYHQGHELAKDFNHYKMELQINIQNTRNRFEGTRSEVEELMNKIRQNPKDHKRASQFTAEGYLYVQEKRPAPFGSSWVKHYCMYRKAAKKFNMIPFEHRSGGKLGDGEVFFLKECTKRHTDSIDRRFCFDIEAADRPGVSLTMQAFSEEERKQWLEALGGKEALSHSFNTAIIPRPEGNAQLDKMGFTIIRKCISAVETRGINDQGLYRVVGVSSKVQRLLSMLMDVKTCNEVDLENSADWEVKTITSALKQYLRSLPEPLMTYELHGDFIVPAKSGSPESRVNAIHFLVHKLPEKNKEMLDILVKHLTNVSNHSKQNLMTVANLGVVFGPTLMRPQEETVAALMDLKFQNIVVEILIENHEKIFRTPPDTTFPEPTCLSASPPNAPPRQSKRQGQRTKRPVAVYNLCLELEDGDNPYPSKEDTPTSSLDSLSSPSPVTTAVPGPPGPDKNHLLADGGSFGDWASTIPGQTRSSMVQWLNPQSPTTTSSNSAVTPLSPGSSPFPFSPPATVADKPPESIRSRKARAVYPCEAEHSSELSFEIGAIFEDVQTSREPGWLEGTLNGKRGLIPQNYVKLL
B2: myc-MICAL1 [human] / GRAF1b-GFP [human] (parent complex)
chain 1: B1 chain 1
chain 2: MGLPALEFSDCCLDSPHFRETLKSHEAELDKTNKFIKELIKDGKSLISALKNLSSAKRKFADSLNEFKFQCIGDAETDDEMCIARSLQEFATVLRNLEDERIRMIENASEVLITPLEKFRKEQIGAAKEAKKKYDKETEKYCGILEKHLNLSSKKKESQLQEADSQVDLVRQHFYEVSLEYVFKVQEVQERKMFEFVEPLLAFLQGLFTFYHHGYELAKDFGDFKTQLTISIQNTRNRFEGTRSEVESLMKKMKENPLEHKTISPYTMEGYLYVQEKRHFGTSWVKHYCTYQRDSKQITMVPFDQKSGGKGGEDESVILKSCTRRKTDSIEKRFCFDVEAVDRPGVITMQALSEEDRRLWMEAMDGREPVYNSNKDSQSEGTAQLDSIGFSIIRKCIHAVETRGINEQGLYRIVGVNSRVQKLLSVLMDPKTASETETDICAEWEIKTITSALKTYLRMLPGPLMMYQFQRSFIKAAKLENQESRVSEIHSLVHRLPEKNRQMLQLLMNHLANVANNHKQNLMTVANLGVVFGPTLLRPQEETVAAIMDIKFQNIVIEILIENHEKIFNTVPDMPLTNAQLHLSRKKSSDSKPPSCSERPLTLFHTVQSTEKQEQRNSIINSSLESVSSNPNSILNSSSSLQPNMNSSDPDLAVVKPTRPNSLPPNPSPTSPLSPSWPMFSAPSSPMPTSSTSSDSSPVSTPFRKAKALYACKAEHDSELSFTAGTVFDNVHPSQEPGWLEGTLNGKTGLIPENYVEFL
B3: GFP-VAPA [human] / myc-WDR44 [human] (parent complex)
chain 1: MASASGAMAKHEQILVLDPPTDLKFKGPFTDVVTTNLKLRNPSDRKVCFKVKTTAPRRYCVRPNSGIIDPGSTVTVSVMLQPFDYDPNEKSKHKFMVQTIFAPPNTSDMEAVWKEAKPDELMDSKLRCVFEMPNENDKLNDMEPSKAVPLNASKQDGPMPKPHSVSLNDTETRKLMEECKRLQGEMMKLSEENRHLRDEGLRLRKVAHSDKPGSTSTASFRDNVTSPLPSLLVVIAAIFIGFFLGKFIL
chain 2: MASESDTEEFYDAPEDVHLGGGYPVGSPGKVGLSTFKETENTAYKVGNESPVQELKQDVSKKIIESIIEESQKVLQLEDDSLDSKGKELSDQATASPIVARTDLSNIPGLLAIDQVLPEESQKAESQNTFEETELELKKCFPSDETCEKPVDETTKLTQTSSTEQLNVLETETEVLNKEAVEVKGGGDVLEPVSSDSLSTKDFAAVEEVAPAKPPRHLTPEPDIVASTKKPVPARPPPPTNFPPPRPPPPSRPAPPPRKRKSELEFETLKTPDIDVPKENITSDSLLTASMASESTVKDSQPSLDLASATSGDKIVTAQENGKAPDGQTVAGEVMGPQRPRSNSGRELTDEEILASVMIKNLDTGEEIPLSLAEEKLPTGINPLTLHIMRRTKEYVSNDAAQSDDEEKLQSQPTDTDGGRLKQKTTQLKKFLGKSVKRAKHLAEEYGERAINKVKSVRDEVFHTDQDDPSSSDDEGMPYTRPVKFKAAHGFKGPYDFDQIKVVQDLSGEHMGAVWTMKFSHCGRLLASAGQDNVVRIWALKNAFDYFNNMRMKYNTEGRVSPSPSQESLSSSKSDTDTGVCSGTDEDPDDKNAPFRQRPFCKYKGHTADLLDLSWSKNYFLLSSSMDKTVRLWHISRRECLCCFQHIDFVTAIAFHPRDDRYFLSGSLDGKLRLWNIPDKKVALWNEVDGQTKLITAANFCQNGKYAVIGTYDGRCIFYDTEHLKYHTQIHVRSTRGRNKVGRKITGIEPLPGENKILVTSNDSRIRLYDLRDLSLSMKYKGYVNSSSQIKASFSHDFTYLVSGSEDKYVYIWSTYHDLSKFTSVRRDRNDFWEGIKAHNAVVTSAIFAPNPSLMLSLDVQSEKSEGNEKSEDAEVLDATPSGIMKTDNTEVLLSADFTGAIKVFVNKRKNVS

Variants of: B1
Assay: co-immunoprecipitation (IP with α-myc-coated beads, quantified western blot); transfected 293T cells; n = 3 or 4; means ± SEM; parent: 1; read off a plot

**Q.** chain 1 K832A was tested. Which ratio to parent did it give?
**A.** ~0.03

Variants of: B2
Assay: co-immunoprecipitation (IP with α-myc-coated beads, quantified western blot); transfected 293T cells; n = 3–5; means ± SEM; parent: 1; read off a plot

**Q.** For chain 1 K832A, which ratio to parent is on record?
**A.** ~0.05

Variants of: B3
Assay: co-immunoprecipitation (IP with α-GFP, quantified western blot); transfected 293T cells; n = 3 or 4; means ± SEM; parent: 1; read off a plot

**Q.** With chain 1 K94D, chain 1 M96D as the variant, how does the ratio to parent read?
**A.** ~0.4
